“Also recorded” adds a separate entry of the source.
B1: KGF: keratinocyte growth factor used as differentiation factor in culture medium (protein, UniProt P21781 32-194, looked up)
Fibroblast growth factor 7: CNDMTPEQMATNVNCSSPERHTRSYDYMEGGDIRVRRLFCRTQWYLRIDKRGKVKGTQEMKNNYNIMEIRTVAVGIVAIKGVESEFYLAMNKEGKLYAKKECNEDCNFKELILENHYNTYASAKWTHNGGEMFVALNQKGIPVRGKKTKKEQKTAHFLPMAIT

Experiments:
Type in all cases: cell-based, human
SR1423 cells [1] = experiment: Glucagon added to the culture media during differentiation
Experimental: A second batch of SR1423 cells were seeded at 6.3×10^4 as described above and allowed to grow for 18-24 hours. […]

SR1423 cells [2] = experiment: Impact of KGF at earlier stages of differentiation, SR1423; details: KGF at earlier stages of differentiation (early endoderm)
Experimental: Differentiation: A first batch of SR1423 cells were seeded at 2.3×10^4 cells/cm^2 and allowed to grow for 18-24 hours. Cells were then washed with dPBS (—Mg^2+/—Ca^2+) and medium was changed following a 28 day schedule comprised of 6 media formulation as follows: Days 1, 2, 3: DMEM/F-12 medium (Life Technologies #10565018), 0.2% HSA, 1XB27 supplement (Life Technologies #A1486701), 100 ng/ml Activin A and 1 uM Wortmannin; Days 4, 5, 6, 7: DMEM (Life Technologies #10567014), 0.2% HSA, 1XB27 supplement, 4 uM Retinoic Acid, 50 ng/ml KGF, 50 ng/ml Noggin, 0.25 uM Cyclopamine KAAD; Days 8, 10: DMEM, 0.2% HSA, 1XB27 supplement, 50 ng/ml KGF, 50 ng/ml Noggin, 50 ng/ml EGF; Days 12, 14: DMEM, 0.2% HSA, 1XB27 supplement, 50 ng/ml Noggin, 50 ng/ml EGF, 1 uM γ-secretase inhibitor XXI, 10 uM Alk5i II, 1 uM T3; Days 16, 18: DMEM, 0.2% HSA, 1XB27 supplement, 10 uM Alk5i II, 1 uM T3, 100 nM Retinoic Acid; Days 20, 22, 24, 26, 28: CMRL (Life Technologies #11530037), 0.2% HSA, 1× B27 supplement, 1× glutamax (Life Technologies # 35050061), 10 uM Alk5i II, 1 uM T3, 10 mM Nicotinamide, 50 ng/ml IGF-I, 10 ng/ml BMP4. For differentiations with the addition of a second stage employing KGF, medium on days 4, 5, 6 with DMEM, 0.2% BSA, 1XB27 supplement, and 50 ng/ml KGF was inserted into the schedule shifting the remaining stages three days later. […]

[3] = system: embryonic stem cell line BGO1V; experiment: Impact of KGF at earlier stages of differentiation, BGO1V

| Molecule | amount of cells that co-express insulin and glucagon (SR1423 cells [1]) | production of pancreatic and insulin-producing cells (SR1423 cells [2]) | production of pancreatic and insulin-producing cells [3] |
| --- | --- | --- | --- |
| glucagon: peptide hormone added to the sixth differentiation medium | reducing the amount of cells that co-express insulin and glucagon; also recorded: reduces the amount of cells that co-express insulin and glucagon | – | – |
| B1 | – | marked reduction | matching results |

Reference: patent US11484554B2, “Pancreatic cells for treating diabetes and methods of generating the same” (Seraxis, Inc., priority 2018, dated 2022)
